From the supplement of paper PMC10567573

B1: ELF3 (parent)
chain: LSKEYWDCLEGKKSKHAPRGTHLW

Variants of: B1
Assay: protein stability index of a GFP-peptide fusion (GPS, HEK-293T) (PSI 1-6); higher = more stable
Conditions: c terminus: a fixed tail appended
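Note: lentivirally expressed fusions sorted by FACS into six bins by GFP to DsRed ratio, PSI derived from sequencing read proportions per bin multiplied by bin number.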

Going from LSKEQWDCLEGKKSKHAPRGTHLW [Y5Q] to LSKERWDCLEGKKSKHAPRGTHLW [Y5R], the protein stability index rises from 2.45 to 3.

Compared with LSKESWDCLEGKKSKHAPRGTHLW [Y5S], LSKETWDCLEGKKSKHAPRGTHLW [Y5T] is lower in protein stability index: 3.3 for the first, 2.66 for the second.

Compared with LSKEVWDCLEGKKSKHAPRGTHLW [Y5V], LSKEWWDCLEGKKSKHAPRGTHLW [Y5W] is higher in protein stability index: 2.34 for the first, 2.66 for the second.

Compared with LSKEYADCLEGKKSKHAPRGTHLW [W6A], LSKEYCDCLEGKKSKHAPRGTHLW [W6C] is lower in protein stability index: 3.6 for the first, 3.38 for the second.

Going from LSKEYDDCLEGKKSKHAPRGTHLW [W6D] to LSKEYEDCLEGKKSKHAPRGTHLW [W6E], the protein stability index falls from 3.93 to 3.66.

Going from LSKEYFDCLEGKKSKHAPRGTHLW [W6F] to LSKEYGDCLEGKKSKHAPRGTHLW [W6G], the protein stability index falls from 3 to 2.84.

First: LSKEYHDCLEGKKSKHAPRGTHLW [W6H]
Second: LSKEYIDCLEGKKSKHAPRGTHLW [W6I]
The protein stability index of the first is lower: 2.33 for the first, 2.96 for the second.

First: LSKEYKDCLEGKKSKHAPRGTHLW [W6K]
Second: LSKEYLDCLEGKKSKHAPRGTHLW [W6L]
The protein stability index of the first is higher: 3.65 for the first, 3.08 for the second.

Compared with LSKEYMDCLEGKKSKHAPRGTHLW [W6M], LSKEYNDCLEGKKSKHAPRGTHLW [W6N] is lower in protein stability index: 3.56 for the first, 3.42 for the second.

Compared with LSKEYPDCLEGKKSKHAPRGTHLW [W6P], LSKEYQDCLEGKKSKHAPRGTHLW [W6Q] is lower in protein stability index: 3.82 for the first, 3.43 for the second.

Compared with LSKEYRDCLEGKKSKHAPRGTHLW [W6R], LSKEYSDCLEGKKSKHAPRGTHLW [W6S] is higher in protein stability index: 3.39 for the first, 3.44 for the second.

Going from LSKEYTDCLEGKKSKHAPRGTHLW [W6T] to LSKEYVDCLEGKKSKHAPRGTHLW [W6V], the protein stability index falls from 3.97 to 3.13.

First: LSKEYYDCLEGKKSKHAPRGTHLW [W6Y]
Second: LSKEYWACLEGKKSKHAPRGTHLW [D7A]
The protein stability index of the first is higher: 3.22 for the first, 2.28 for the second.

Going from LSKEYWCCLEGKKSKHAPRGTHLW [D7C] to LSKEYWECLEGKKSKHAPRGTHLW [D7E], the protein stability index rises from 2.32 to 2.77.

Going from LSKEYWFCLEGKKSKHAPRGTHLW [D7F] to LSKEYWGCLEGKKSKHAPRGTHLW [D7G], the protein stability index rises from 1.83 to 2.15.

Going from LSKEYWHCLEGKKSKHAPRGTHLW [D7H] to LSKEYWICLEGKKSKHAPRGTHLW [D7I], the protein stability index falls from 2.33 to 2.05.

Going from LSKEYWKCLEGKKSKHAPRGTHLW [D7K] to LSKEYWLCLEGKKSKHAPRGTHLW [D7L], the protein stability index falls from 2.41 to 2.26.

Going from LSKEYWMCLEGKKSKHAPRGTHLW [D7M] to LSKEYWNCLEGKKSKHAPRGTHLW [D7N], the protein stability index rises from 2.6 to 2.96.

Going from LSKEYWPCLEGKKSKHAPRGTHLW [D7P] to LSKEYWQCLEGKKSKHAPRGTHLW [D7Q], the protein stability index rises from 2.04 to 3.

Going from LSKEYWRCLEGKKSKHAPRGTHLW [D7R] to LSKEYWSCLEGKKSKHAPRGTHLW [D7S], the protein stability index rises from 1.65 to 2.44.

First: LSKEYWTCLEGKKSKHAPRGTHLW [D7T]
Second: LSKEYWVCLEGKKSKHAPRGTHLW [D7V]
The protein stability index of the first is higher: 2.76 for the first, 2.44 for the second.

First: LSKEYWWCLEGKKSKHAPRGTHLW [D7W]
Second: LSKEYWYCLEGKKSKHAPRGTHLW [D7Y]
The protein stability index of the first is lower: 1.89 for the first, 2.29 for the second.

First: LSKEYWDALEGKKSKHAPRGTHLW [C8A]
Second: LSKEYWDDLEGKKSKHAPRGTHLW [C8D]
The protein stability index of the first is lower: 3.1 for the first, 3.97 for the second.

Compared with LSKEYWDELEGKKSKHAPRGTHLW [C8E], LSKEYWDFLEGKKSKHAPRGTHLW [C8F] is lower in protein stability index: 2.85 for the first, 2.81 for the second.

Going from LSKEYWDGLEGKKSKHAPRGTHLW [C8G] to LSKEYWDHLEGKKSKHAPRGTHLW [C8H], the protein stability index falls from 3.2 to 3.06.

Compared with LSKEYWDILEGKKSKHAPRGTHLW [C8I], LSKEYWDKLEGKKSKHAPRGTHLW [C8K] is higher in protein stability index: 2.66 for the first, 3.73 for the second.

Going from LSKEYWDLLEGKKSKHAPRGTHLW [C8L] to LSKEYWDMLEGKKSKHAPRGTHLW [C8M], the protein stability index rises from 3.08 to 3.48.

Going from LSKEYWDNLEGKKSKHAPRGTHLW [C8N] to LSKEYWDPLEGKKSKHAPRGTHLW [C8P], the protein stability index falls from 3.07 to 2.04.

First: LSKEYWDQLEGKKSKHAPRGTHLW [C8Q]
Second: LSKEYWDRLEGKKSKHAPRGTHLW [C8R]
The protein stability index of the first is lower: 2.95 for the first, 3.2 for the second.

First: LSKEYWDSLEGKKSKHAPRGTHLW [C8S]
Second: LSKEYWDTLEGKKSKHAPRGTHLW [C8T]
The protein stability index of the first is higher: 3.33 for the first, 3.26 for the second.

Going from LSKEYWDVLEGKKSKHAPRGTHLW [C8V] to LSKEYWDWLEGKKSKHAPRGTHLW [C8W], the protein stability index falls from 3.89 to 2.17.

Going from LSKEYWDYLEGKKSKHAPRGTHLW [C8Y] to LSKEYWDCAEGKKSKHAPRGTHLW [L9A], the protein stability index rises from 2.74 to 3.38.

First: LSKEYWDCCEGKKSKHAPRGTHLW [L9C]
Second: LSKEYWDCDEGKKSKHAPRGTHLW [L9D]
The protein stability index of the first is higher: 3.3 for the first, 3.22 for the second.

Compared with LSKEYWDCEEGKKSKHAPRGTHLW [L9E], LSKEYWDCFEGKKSKHAPRGTHLW [L9F] is lower in protein stability index: 3.46 for the first, 2.6 for the second.

Compared with LSKEYWDCGEGKKSKHAPRGTHLW [L9G], LSKEYWDCHEGKKSKHAPRGTHLW [L9H] is lower in protein stability index: 3.65 for the first, 3.26 for the second.

Going from LSKEYWDCIEGKKSKHAPRGTHLW [L9I] to LSKEYWDCKEGKKSKHAPRGTHLW [L9K], the protein stability index falls from 3.04 to 2.92.

Going from LSKEYWDCMEGKKSKHAPRGTHLW [L9M] to LSKEYWDCNEGKKSKHAPRGTHLW [L9N], the protein stability index rises from 3.42 to 3.81.

Going from LSKEYWDCPEGKKSKHAPRGTHLW [L9P] to LSKEYWDCQEGKKSKHAPRGTHLW [L9Q], the protein stability index rises from 3.44 to 3.71.

Going from LSKEYWDCREGKKSKHAPRGTHLW [L9R] to LSKEYWDCSEGKKSKHAPRGTHLW [L9S], the protein stability index rises from 2.89 to 3.31.

First: LSKEYWDCTEGKKSKHAPRGTHLW [L9T]
Second: LSKEYWDCVEGKKSKHAPRGTHLW [L9V]
The protein stability index of the first is lower: 2.93 for the first, 3.83 for the second.

Compared with LSKEYWDCWEGKKSKHAPRGTHLW [L9W], LSKEYWDCYEGKKSKHAPRGTHLW [L9Y] is higher in protein stability index: 2.27 for the first, 2.84 for the second.

First: LSKEYWDCLAGKKSKHAPRGTHLW [E10A]
Second: LSKEYWDCLCGKKSKHAPRGTHLW [E10C]
The protein stability index of the first is higher: 2.52 for the first, 2.07 for the second.

First: LSKEYWDCLDGKKSKHAPRGTHLW [E10D]
Second: LSKEYWDCLFGKKSKHAPRGTHLW [E10F]
The protein stability index of the first is higher: 3.23 for the first, 2.08 for the second.

Going from LSKEYWDCLGGKKSKHAPRGTHLW [E10G] to LSKEYWDCLHGKKSKHAPRGTHLW [E10H], the protein stability index falls from 2.37 to 2.15.

First: LSKEYWDCLIGKKSKHAPRGTHLW [E10I]
Second: LSKEYWDCLKGKKSKHAPRGTHLW [E10K]
The protein stability index of the first is lower: 1.61 for the first, 2.18 for the second.

First: LSKEYWDCLLGKKSKHAPRGTHLW [E10L]
Second: LSKEYWDCLMGKKSKHAPRGTHLW [E10M]
The protein stability index of the first is lower: 1.82 for the first, 2.18 for the second.

First: LSKEYWDCLNGKKSKHAPRGTHLW [E10N]
Second: LSKEYWDCLPGKKSKHAPRGTHLW [E10P]
The protein stability index of the first is higher: 2.55 for the first, 2.16 for the second.
